# Target: EBV-LMP2 peptide presented by HLA-A*02:02 on artificial antigen presenting cells (human; Epstein-Barr virus)
# Assay: cell-based or functional assay
binder,measurement,value
LMP2-38×CD3 bispecific antibody (bispecific antibody) QSALTQPASVSGSPGQSITISCTGTSSDVGSYNDVSWYQQHPGKAPKLMIYDVSNRPSGVSNRFSGSKSGNTASLTISGLQTEDEADYYCNSYTSSNTYVFGTGTKVTVLGQVQLVQSGAEVKKPGASVQVSCRASGYTITSYYMHWVRQAPGQGLEWMGVINPNAGSTRYAQKFQGRVTMSTDTSTSTVYMALSSLRSDDTAVYYCARGMYRMYDWGQGTLVTVSSDVQLVQSGAEVKKPGASVKVSCKASGYTFTRYTMHWVRQAPGQGLEWIGYINPSRGYTNYADSVKGRFTITTDKSTSTAYMELSSLRSEDTATYYCARYYDDHYCLDYWGQGTTVTVSSGEGTSTGSGGSGGSGGADDIVLTQSPATLSLSPGERATLSCRASQSVSYMNWYQQKPGKAPKRWIYDTSKVASGVPARFSGSGSGTDYSLTINSLEAEDAATYYCQQWSSNPLTFGGGTKVEIKHHHHHH,"EC50 (read off the curve), T cell cytotoxicity on peptide-pulsed aAPC expressing HLA-A*02:02",~0.02 µg/mL
